Measurements reported in PMC2939065, “Nephrocystin-1 Forms a Complex with Polycystin-1 via a Polyproline Motif/SH3 Domain Interaction and Regulates the Apoptotic Response in Mammals” (PLoS ONE, 2010).
One block for each binder: values may come before it.

Columns and labels:
[1] = target: T1, NPHP1-SH3 (15N-labelled SH3 domain of nephrocystin-1 for NMR and ITC) (Homo sapiens (Human), UniProt O15259); test: NMR titration (1H-15N HSQC)
T1 chain: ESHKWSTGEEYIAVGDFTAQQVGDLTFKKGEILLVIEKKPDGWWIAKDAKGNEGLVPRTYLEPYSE

[2] = target: T2, NPHP1-SH3 (15N-labelled SH3 domain of nephrocystin-1 for NMR and ITC) (human, UniProt O15259 147-212); test: NMR titration; 1H-15N HSQC of 15N NPHP1-SH3 (0.3 mM) with added peptide (0, 0.5, 1, 1.5, 2, 3, 4 equivalents for peptPP2); fast exchange; details: both partners purified
T2 construct: Nephrocystin-1 (NPHP1), human, SH3 domain, codons 147-212, expressed from pGEX-2T; 15N isotope label for NMR; also called 15N NPHP1-SH3
T2 sequence (looked up): T1 chain

binding result [1]: no binding
B1: peptPP1 (protein)
chain: Ac-RGSKVSPDVPPPS-NH2

Kd [2]: 300 ± 20 µM
B2: peptPP2 (peptide)
peptide: Ac-GLRPALPSRLARAS-NH2
notes: stretch of the PC-1 C-tail containing PP2 (P4267ALPSR4272), aminoacids 4264-4277; also called PP2 peptide; source: synthetic peptide, bought: CASLO (Lyngby, Denmark)
